Laboratory results reported in patent US20200392225A1 (Novartis, published 2020).
Residue numbers refer to the chain shown, from its start. Blank lines part the entries; values can stand above or below the binder they belong to.

Legend:
[1] = biological target: T1, constitutively active human NPR1 mutant (W74R), recombinant antigen (human, UniProt P16066 33-473); experiment: ELISA, IgG titrated on the antigen without ANP [cont.]
T1 construct: also called W74R hNPR1
T1 sequence: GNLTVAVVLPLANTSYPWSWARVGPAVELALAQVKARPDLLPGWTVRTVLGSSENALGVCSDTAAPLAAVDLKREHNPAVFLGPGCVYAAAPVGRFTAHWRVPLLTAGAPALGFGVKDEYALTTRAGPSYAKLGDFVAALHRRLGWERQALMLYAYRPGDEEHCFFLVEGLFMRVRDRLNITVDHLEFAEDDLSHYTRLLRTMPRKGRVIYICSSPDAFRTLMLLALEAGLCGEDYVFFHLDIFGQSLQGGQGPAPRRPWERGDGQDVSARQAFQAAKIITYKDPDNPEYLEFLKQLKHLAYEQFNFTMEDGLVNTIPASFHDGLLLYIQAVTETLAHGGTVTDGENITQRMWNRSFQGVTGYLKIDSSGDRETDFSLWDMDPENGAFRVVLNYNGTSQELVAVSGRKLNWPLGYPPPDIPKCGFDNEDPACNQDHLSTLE

[2] = biological target: T2, human NPR1 (Natriuretic Peptide Receptor 1), recombinant antigen (human, UniProt P16066 33-473); experiment: as above
T2 construct: also called hNPR1; NPR1-hFc
T2 sequence: T1 sequence with R74W

[3] = biological target: T2, human NPR1 (Natriuretic Peptide …); experiment: FRET assay on hNPR1, competitor Cy5-labeled ANP [cont.]
[4] = biological target: T3, human NPR1 expressed on CHO-K1 cells (human, UniProt P16066 33-1061); experiment: flow cytometry, 1 uM IgG
T3 construct: also called hNPR1 CHO K1; human NPR1 expressing CHO-K1 cells
T3 sequence: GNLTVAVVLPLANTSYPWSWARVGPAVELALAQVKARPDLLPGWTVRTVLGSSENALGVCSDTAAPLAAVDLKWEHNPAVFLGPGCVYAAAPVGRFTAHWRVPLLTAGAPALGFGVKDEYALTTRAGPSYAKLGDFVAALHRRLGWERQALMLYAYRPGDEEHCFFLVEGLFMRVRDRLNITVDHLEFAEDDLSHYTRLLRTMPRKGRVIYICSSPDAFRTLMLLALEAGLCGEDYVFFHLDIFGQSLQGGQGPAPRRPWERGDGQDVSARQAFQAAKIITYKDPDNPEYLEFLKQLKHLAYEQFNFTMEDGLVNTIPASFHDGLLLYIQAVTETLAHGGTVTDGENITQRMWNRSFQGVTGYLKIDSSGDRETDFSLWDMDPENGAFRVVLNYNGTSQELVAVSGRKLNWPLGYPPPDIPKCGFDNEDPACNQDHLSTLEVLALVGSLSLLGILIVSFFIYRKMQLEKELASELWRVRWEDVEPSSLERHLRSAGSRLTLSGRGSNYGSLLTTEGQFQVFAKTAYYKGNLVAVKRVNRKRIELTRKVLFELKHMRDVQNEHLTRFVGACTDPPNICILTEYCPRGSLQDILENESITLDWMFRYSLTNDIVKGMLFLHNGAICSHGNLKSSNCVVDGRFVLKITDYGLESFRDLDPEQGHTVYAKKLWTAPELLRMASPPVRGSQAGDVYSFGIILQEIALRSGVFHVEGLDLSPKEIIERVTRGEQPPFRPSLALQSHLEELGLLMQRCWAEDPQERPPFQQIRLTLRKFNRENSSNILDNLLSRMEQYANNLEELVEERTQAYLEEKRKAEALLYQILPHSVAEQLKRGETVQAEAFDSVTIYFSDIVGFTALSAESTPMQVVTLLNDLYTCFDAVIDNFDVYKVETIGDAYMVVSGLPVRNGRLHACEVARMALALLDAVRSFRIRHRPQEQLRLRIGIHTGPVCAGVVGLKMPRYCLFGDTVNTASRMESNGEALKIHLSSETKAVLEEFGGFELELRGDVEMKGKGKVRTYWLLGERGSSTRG

[5] = biological target: T4, human NPR1 expressed on CHO-K1 cells in the presence of ANP (human, UniProt P01160 124-151); experiment: flow cytometry, 1 uM IgG, +100 nM ANP
T4 construct: also called hNPR1 CHO K1 + 100 nM ANP
T4 sequence: T3 sequence
T4 sequence (peptide): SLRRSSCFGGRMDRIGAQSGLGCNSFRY

[6] = biological target: T3, human NPR1 expressed on CHO-K1 cells; experiment: cell-based or functional assay
human NPR1-ANP complex [7] = biological target: T5, human NPR1-ANP complex (human, UniProt P01160 124-151, limits assumed); experiment: ELISA, IgG titrated on the antigen with 250 fold molar excess of ANP [cont.]
T5 construct: Receptor antigen measured in the presence of ANP; also called hNPR1 + ANP; hNPR1-ANP-complex
T5 sequence: T1 sequence with R74W
T5 sequence (peptide): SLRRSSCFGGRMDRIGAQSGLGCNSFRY

[8] = biological target: T1, constitutively active human NPR1 mutant …; experiment: ELISA, 1 uM IgG
[9] = biological target: T2, human NPR1 (Natriuretic Peptide …); experiment: ELISA, 1 uM IgG
rat NPR1-ANP complex [10] = biological target: T6, rat NPR1-ANP complex (rat); experiment: ELISA, 1 uM IgG, +100 nM ANP
T6 construct: Rat receptor antigen measured in the presence of ANP; also called rNPR1 + ANP; rNPR1-ANP-complex

human NPR1-ANP complex [11] = biological target: T5, human NPR1-ANP complex; experiment: ELISA, 1 uM IgG, +100 nM ANP
rat NPR1-ANP complex [12] = biological target: T6, rat NPR1-ANP complex; experiment: ELISA, IgG titrated on the antigen with 250 fold molar excess of ANP [cont.]
[13] = biological target: T1, constitutively active human NPR1 mutant …; experiment: ELISA, IgG titrated on the antigen without ANP
human NPR1-ANP complex [14] = biological target: T5, human NPR1-ANP complex; experiment: FRET assay on hNPR1, competitor Cy5-labeled ANP (half-maximal rise of the ANP signal) [cont.]
[15] = biological target: T4, human NPR1 expressed on CHO-K1 cells in …; experiment: flow cytometry, hNPR1 expressing CHO-K1 cells with saturating ANP [cont.]
[16] = biological target: T7, rat NPR1, recombinant antigen (rat, UniProt P18910 29-469); experiment: ELISA, 1 uM IgG
T7 construct: NCBI NP_036745.1 printed; also called rNPR1
T7 sequence: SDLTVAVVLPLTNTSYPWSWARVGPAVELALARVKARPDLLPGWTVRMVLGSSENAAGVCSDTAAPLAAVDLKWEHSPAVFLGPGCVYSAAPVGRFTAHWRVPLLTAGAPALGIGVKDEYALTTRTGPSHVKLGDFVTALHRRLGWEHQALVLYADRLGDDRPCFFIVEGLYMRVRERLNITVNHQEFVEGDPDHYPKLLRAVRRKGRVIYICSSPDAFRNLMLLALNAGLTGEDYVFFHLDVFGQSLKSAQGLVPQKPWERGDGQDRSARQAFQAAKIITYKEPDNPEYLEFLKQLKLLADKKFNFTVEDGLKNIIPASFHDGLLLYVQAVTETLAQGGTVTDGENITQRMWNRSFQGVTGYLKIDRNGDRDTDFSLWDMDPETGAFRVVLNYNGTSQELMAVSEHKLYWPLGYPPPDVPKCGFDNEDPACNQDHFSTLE

human NPR1-ANP complex [17] = biological target: T5, human NPR1-ANP complex; experiment: ELISA, IgG titrated on the antigen with 250 fold molar excess of ANP [cont.]; remark: listed apart in the source

EC50 (read off the curve) [1]: ~5 nM
EC50 (read off the curve) [2]: ~8 nM
IC50 (read off the curve) [3]: ~5 nM
flow cytometry S/BG [4]: 26 S/BG
flow cytometry S/BG [5]: 18 S/BG
cGMP conc [nM] at 1 uM IgG, +0.075 nM ANP [6]: 15 nM
cGMP conc [nM] at 1 uM IgG, without ANP [6]: 12 nM
EC50 (read off the curve) (human NPR1-ANP complex [7]): ~8 nM
ELISA IgG binding at 1 uM IgG (unit not given) [8]: 83
ELISA IgG binding at 1 uM IgG (unit not given) [9]: 91
ELISA IgG binding at 1 uM IgG (unit not given) (rat NPR1-ANP complex [10]): 4
ELISA IgG binding at 1 uM IgG (unit not given) (human NPR1-ANP complex [11]): 102
B1: YY06 IgG (YY06_LALA) (antibody, V domains shown)
VH: EVQLLESGGGLVQPGGSLRLSCAASGFTFSSYAISWVRQAPGKGLEWVSAISGSGGSTYYAESVKGRFTISRDNSKNTLYLQMNSLRAEDTAVYYCARPYLGDRRSYGFDHWGQGTLVTVSS
VL: QSALTQPASVSGSPGQSITISCTGTSSDVGSYNLVSWYQQHPGKAPKLMIYEGSKRPSGVSNRFSGSKSGNTASLTISGLQAEDEADYYCSSYGFHIVVVVFGGGTKLTVLG

EC50 (read off the curve) [13]: ~2 nM
B3: YY02 IgG (YY02_LALA) (antibody, V domains shown)
VH: EVQLVESGGGLVKPGGSLRLSCAASGFTFSSYSMNWVRQAPGKGLEWVSSISSSSSYIYYADSVKGRFTISRDNAKNSLYLQMNSLRAEDTAVYYCARSGYRGVYGFDYWGQGTLVTVSS
VL: DIQMTQSPSSVSASVGDRVTITCRASQGISSWLAWYQQKPGKAPKLLIYAASSLQSGVPSRFSGSGSGTDFTLTISSLQPEDFATYYCQQYYHSPLTFGQGTKVEIKR

EC50 (read off the curve) [1]: ~1 nM
flow cytometry S/BG [4]: 15 S/BG
flow cytometry S/BG [5]: 5 S/BG
cGMP conc [nM] at 1 uM IgG, +0.075 nM ANP [6]: 15 nM
cGMP conc [nM] at 1 uM IgG, without ANP [6]: 13 nM
ELISA IgG binding at 1 uM IgG (unit not given) [8]: 69
ELISA IgG binding at 1 uM IgG (unit not given) [16]: 11
ELISA IgG binding at 1 uM IgG (unit not given) [9]: 81
ELISA IgG binding at 1 uM IgG (unit not given) (rat NPR1-ANP complex [10]): 16
ELISA IgG binding at 1 uM IgG (unit not given) (human NPR1-ANP complex [11]): 32
B5: YY05 IgG (YY05_LALA) (antibody, V domains shown)
VH: EVQLVQSGAEVKKPGESLKISCKGSGYSFTSYWISWVRQMPGKGLEWMGIIYPGTSYTRYSPSFQGQVTISADKSISTAYLQWSSLKASDTAMYYCARGAVAGQLGFDHWGQGTLVTVSS
VL: QSVLTQPPSVSGAPGQRVTISCTGSSSNIGAGYDVHWYQQLPGTAPKLLIYGNSNRPSGVPDRFSGSKSGTSASLAITGLQAEDEADYYCQSYYTSSHGPVFGGGTKLTVLG

Further lines, the binder ahead of its results:

B2: XX07 IgG (antibody, V domains shown)
VH: QVQLLESGGGLVQPGGSLRLSCAASGFTFSSYWMNWVRQAPGKGLEWVSAISSDGSYTYYADSVKGRFTISRDNSKNTLYLQMNSLRAEDTAVYYCARDRYSMIYSYGAGAFDYWGQGTLVTVSS
VL: B3 VL with V11L, W32Y, A50T, S53T, Y91I, Y92W, H93T, S94V, L96R
notes: also called XX07_LALA
EC50 (read off the curve) (rat NPR1-ANP complex [12]): ~0.2 nM

B4: XX12 IgG (antibody, V domains shown)
VH: B2 VH
VL: B3 VL with V11L, W32Y, A50T, S53T, Y91I, Y92W, H93M, S94A, L96R
notes: also called XX12_LALA
EC50 (read off the curve) (human NPR1-ANP complex [14]): ~0.5 nM
EC50 (read off the curve) [15]: ~0.9 nM

B6: XX08 (antibody, human IgG1, kappa, L234A L235A, V domains shown)
VH: EVQLLESGGGLVQPGGSLRLSCAASGFTFNTHYIHWVRQAPGKGLEWVSSIGGQGGMTLYADSVKGRFTISRDNSKNTLYLQMNSLRAEDTAVYYCARERGYVYYHMFDPWGQGTLVTVSS
VL: DIVLTQSPATLSLSPGERATLSCRASQSITRNYLAWYQQKPGQAPRLLIYGASSRATGIPARFSGSGSGTDFTLTISSLEPEDFAVYYCQQHSMYPRTFGQGTKVEIKR
notes: the panel axis reads IgG conc; [nM]; the list MOLECULES holds only the FabCys format; also called XX08 IgG; XX08_LALA
EC50 (read off the curve) (human NPR1-ANP complex [17]): ~0.5 nM
